From publication PMC6939996 (Nature, 2019)

T1: BBP/Mud2 dimer (S. cerevisiae, UniProt Q12186 1-476; P36084 1-527)
T1 sequence (looked up) 1: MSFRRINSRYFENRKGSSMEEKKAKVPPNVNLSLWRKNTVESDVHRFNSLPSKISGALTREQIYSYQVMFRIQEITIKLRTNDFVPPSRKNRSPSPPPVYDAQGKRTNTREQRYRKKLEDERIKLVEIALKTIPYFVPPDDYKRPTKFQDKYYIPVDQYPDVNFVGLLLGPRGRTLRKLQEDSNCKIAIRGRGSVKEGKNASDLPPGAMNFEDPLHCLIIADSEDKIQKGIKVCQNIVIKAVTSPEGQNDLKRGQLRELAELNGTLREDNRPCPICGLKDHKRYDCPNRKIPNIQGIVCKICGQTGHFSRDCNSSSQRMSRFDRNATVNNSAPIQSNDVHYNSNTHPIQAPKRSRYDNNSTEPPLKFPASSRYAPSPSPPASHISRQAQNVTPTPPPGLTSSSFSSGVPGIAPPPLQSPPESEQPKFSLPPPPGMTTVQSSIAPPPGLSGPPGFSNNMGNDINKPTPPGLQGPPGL
T1 sequence (looked up) 2: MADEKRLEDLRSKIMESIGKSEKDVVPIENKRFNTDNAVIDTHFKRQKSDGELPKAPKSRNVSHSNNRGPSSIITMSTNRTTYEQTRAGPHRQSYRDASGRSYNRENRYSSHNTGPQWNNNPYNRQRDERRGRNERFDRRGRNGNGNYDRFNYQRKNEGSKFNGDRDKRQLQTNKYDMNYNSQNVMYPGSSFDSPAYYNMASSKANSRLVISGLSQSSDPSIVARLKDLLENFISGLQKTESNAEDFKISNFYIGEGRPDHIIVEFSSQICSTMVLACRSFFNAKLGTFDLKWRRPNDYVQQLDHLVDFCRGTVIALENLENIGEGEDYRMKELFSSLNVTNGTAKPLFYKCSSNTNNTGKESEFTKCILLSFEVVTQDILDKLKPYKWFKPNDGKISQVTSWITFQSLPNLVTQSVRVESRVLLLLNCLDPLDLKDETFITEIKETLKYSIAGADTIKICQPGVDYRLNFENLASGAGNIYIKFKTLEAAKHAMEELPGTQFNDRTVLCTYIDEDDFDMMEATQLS

B1: Snu56 (in the purified U1 snRNP of the Ubc4 E complex) (natural protein, S. cerevisiae)
chain: MRPRRRGLAYHHTKPKGQLSQGHYPTTSNDGQRRKVGNSEAFQSFDIWKNLDRIRSTKKNAGQFIKGSLLILPMRTEDKQQFDECMDELHKYISKDILRCYPQKEQKDEGMLFYIVLKDFNILDSCFVLSVLLAFQKRLWMAPSEKSYFRVPKNINLTGSFYLPKNIETGRGHIITSYRREQPSSSIVEVGFNVVPDFQQFQVKACHVSKFMNELSNFFSQVEFGKCEANVINYFKREYNRTYSQISLALYELPLIGDGLFDIKSYISKTRPIIETSKAQMIKHISEMKAYNEISGLQGDQFPRQQRPLSNSPSSNSISSSQTIEAGATSYQTQPQRHAVNKPSNVLNSSNRHSGPKTFEDGRYSEGNKPGFMTQDEIKQHCIGTIKASMDAVKKKSSYQILKTYVRCPRQNYIDIVYQNLNDLRSKTNCNIVVLNLNNLHESQMWLESLNTTNYTIFAQAPHPSTIRVISIGGVGEYIVKALELILNILEH
B2: Snu71 (in the purified U1 snRNP of the Ubc4 E complex) (natural protein, S. cerevisiae, UniProt P53207 1-620, looked up)
chain: MRDIVFVSPQLYLSSQEGWKSDSAKSGFIPILKNDLQRFQDSLKHIVDARNSLSETLLNSNDDGSIHNSDQNTGLNKDKEASIADNNSANKCATSSSRYQELKQFLPISLDQQIHTVSLQGVSSSFSRGQIESLLDHCLNLALTETQSNSALKVEAWSSFSSFLDTQDIFIRFSKVDEDEAFVNTLNYCKALFAFIRKLHEDFKIELHLDLNTKEYVEDRTGTIPSVKPEKASEFYSVFKNIEDQTDERNSKKEQLDDSSTQYKVDTNTLSDLPSDALDQLCKDIIEFRTKVVSIEKEKKMKSTYEESRRQRHQMQKVFDQIRKNHSGAKGSANTEEEDTNMEDEDEEDDTEDDLALEKRKEERDLEESNRRYEDMLHQLHSNTEPKIKSIRADIMSAENYEEHLEKNRSLYLKELLHLANDVHYDHHRSFKEQEERRDEEDRAKNGNAKELAPIQLSDGKAISAGKAAAITLPEGTVKSENYNADKNVSESSEHVKIKFDFKKAIDHSVESSSEDEGYRESELPPTKPSERSAAEDRLPFTADELNIRLTNLKESRYVDELVREFLGVYEDELVEYILENIRVNQSKQALLNELRETFDEDGETIADRLWSRKEFRLGT
B3: U1-70K (in the purified U1 snRNP of the Ubc4 E complex) (natural protein, S. cerevisiae)
chain: MNYNLSKYPDDVSRLFKPRPPLSYKRPTDYPYAKRQTNPNITGVANLLSTSLKHYMEEFPEGSPNNHLQRYEDIKLSKIKNAQLLDRRLQNWNPNVDPHIKDTDPYRTIFIGRLPYDLDEIELQKYFVKFGEIEKIRIVKDKITQKSKGYAFIVFKDPISSKMAFKEIGVHRGIQIKDRICIVDIERGRTVKYFKPRRLGGGLGGRGYSNRDSRLPGRFASASTSNPAERNYAPRLPRRETSSSAYSADRYGSSTLDARYRGNRPLLSAATPTAAVTSVYKSRNSRTRESQPAPKEAPDY
B4: Luc7 (in the purified U1 snRNP of the Ubc4 E complex) (natural protein, S. cerevisiae)
chain: MSTMSTPAAEQRKLVEQLMGRDFSFRHNRYSHQKRDLGLHDPKICKSYLVGECPYDLFQGTKQSLGKCPQMHLTKHKIQYEREVKQGKTFPEFEREYLAILSRFVNECNGQISVALQNLKHTAEERMKIQQVTEELDVLDVRIGLMGQEIDSLIRADEVSMGMLQSVKLQELISKRKEVAKRVRNITENVGQSAQQKLQVCEVCGAYLSRLDTDRRLADHFLGKIHLGYVKMREDYDRLMKNNRTTNASKTATTLPGRRFV
B5: Prp40 (in the purified U1 snRNP of the Ubc4 E complex) (natural protein)
chain: MSIWKEAKDASGRIYYYNTLTKKSTWEKPKELISQEELLLRENGWKAAKTADGKVYYYNPTTRETSWTIPAFEKKVEPIAEQKHDTVSHAQVNGNRIALTAGEKQEPGRTINEEESQYANNSKLLNVRRRTKEEAEKEFITMLKENQVDSTWSFSRIISELGTRDPRYWMVDDDPLWKKEMFEKYLSNRSADQLLKEHNETSKFKEAFQKMLQNNSHIKYYTRWPTAKRLIADEPIYKHSVVNEKTKRQTFQDYIDTLIDTQKESKKKLKTQALKELREYLNGIITTSSSETFITWQQLLNHYVFDKSKRYMANRHFKVLTHEDVLNEYLKIVNTIENDLQNKLNELRLRNYTRDRIARDNFKSLLREVPIKIKANTRWSDIYPHIKSDPRFLHMLGRNGSSCLDLFLDFVDEQRMYIFAQRSIAQQTLIDQNFEWNDADSDEITKQNIEKVLENDRKFDKVDKEDISLIVDGLIKQRNEKIQQKLQNERRILEQKKHYFWLLLQRTYTKTGKPKPSTWDLASKELGESLEYKALGDEDNIRRQIFEDFKPESSAPTAESATANLTLTASKKRHLTPAVELDY

Tests used:
Assay in all cases: cross-linking
[1] = target: T1, BBP/Mud2 dimer
[2] = target: B5
[3] = target: B2

Binder	binding result [1]	binding result [2]	binding result [3]
B1	binds		
B2	binds		
B3		binds	
B4	binds	binds	
B5	binds		binds
